B1: Heterogeneous nuclear ribonucleoprotein M (Homo sapiens), P52272 (parent)
chain: MAAGVEAAAEVAATEIKMEEESGAPGVPSGNGAPGPKGEGERPAQNEKRKEKNIKRGGNRFEPYANPTKRYRAFITNIPFDVKWQSLKDLVKEKVGEVTYVELLMDAEGKSRGCAVVEFKMEESMKKAAEVLNKHSLSGRPLKVKEDPDGEHARRAMQKVMATTGGMGMGPGGPGMITIPPSILNNPNIPNEIIHALQAGRLGSTVFVANLDYKVGWKKLKEVFSMAGVVVRADILEDKDGKSRGIGTVTFEQSIEAVQAISMFNGQLLFDRPMHVKMDERALPKGDFFPPERPQQLPHGLGGIGMGLGPGGQPIDANHLNKGIGMGNIGPAGMGMEGIGFGINKMGGMEGPFGGGMENMGRFGSGMNMGRINEILSNALKRGEIIAKQGGGGGGGSVPGIERMGPGIDRLGGAGMERMGAGLGHGMDRVGSEIERMGLVMDRMGSVERMGSGIERMGPLGLDHMASSIERMGQTMERIGSGVERMGAGMGFGLERMAAPIDRVGQTIERMGSGVERMGPAIERMGLSMERMVPAGMGAGLERMGPVMDRMATGLERMGANNLERMGLERMGANSLERMGLERMGANSLERMGPAMGPALGAGIERMGLAMGGGGGASFDRAIEMERGNFGGSFAGSFGGAGGHAPGVARKACQIFVRNLPFDFTWKMLKDKFNECGHVLYADIKMENGKSKGCGVVKFESPEVAERACRMMNGMKLSGREIDVRIDRNA
B2: Heterogeneous nuclear ribonucleoprotein A1 (Homo sapiens), P09651-2 (parent)
chain: MSKSESPKEPEQLRKLFIGGLSFETTDESLRSHFEQWGTLTDCVVMRDPNTKRSRGFGFVTYATVEEVDAAMNARPHKVDGRVVEPKRAVSREDSQRPGAHLTVKKIFVGGIKEDTEEHHLRDYFEQYGKIEVIEIMTDRGSGKKRGFAFVTFDDHDSVDKIVIQKYHTVNGHNCEVRKALSKQEMASASSSQRGRSGSGNFGGGRGGGFGGNDNFGRGGNFSGRGGFGGSRGGGGYGGSGDGYNGFGNDGSNFGGGGSYNDFGNYNNQSSNFGPMKGGNFGGRSSGPYGGGGQYFAKPRNQGGYGGSSSSSSYGSGRRF

One experiment covers variants of B1. As to conditions: with tnpo1_human TNPO1, Q92973.
tnpo1_human TNPO1, Q92973, sequence (Q92973 whole entry): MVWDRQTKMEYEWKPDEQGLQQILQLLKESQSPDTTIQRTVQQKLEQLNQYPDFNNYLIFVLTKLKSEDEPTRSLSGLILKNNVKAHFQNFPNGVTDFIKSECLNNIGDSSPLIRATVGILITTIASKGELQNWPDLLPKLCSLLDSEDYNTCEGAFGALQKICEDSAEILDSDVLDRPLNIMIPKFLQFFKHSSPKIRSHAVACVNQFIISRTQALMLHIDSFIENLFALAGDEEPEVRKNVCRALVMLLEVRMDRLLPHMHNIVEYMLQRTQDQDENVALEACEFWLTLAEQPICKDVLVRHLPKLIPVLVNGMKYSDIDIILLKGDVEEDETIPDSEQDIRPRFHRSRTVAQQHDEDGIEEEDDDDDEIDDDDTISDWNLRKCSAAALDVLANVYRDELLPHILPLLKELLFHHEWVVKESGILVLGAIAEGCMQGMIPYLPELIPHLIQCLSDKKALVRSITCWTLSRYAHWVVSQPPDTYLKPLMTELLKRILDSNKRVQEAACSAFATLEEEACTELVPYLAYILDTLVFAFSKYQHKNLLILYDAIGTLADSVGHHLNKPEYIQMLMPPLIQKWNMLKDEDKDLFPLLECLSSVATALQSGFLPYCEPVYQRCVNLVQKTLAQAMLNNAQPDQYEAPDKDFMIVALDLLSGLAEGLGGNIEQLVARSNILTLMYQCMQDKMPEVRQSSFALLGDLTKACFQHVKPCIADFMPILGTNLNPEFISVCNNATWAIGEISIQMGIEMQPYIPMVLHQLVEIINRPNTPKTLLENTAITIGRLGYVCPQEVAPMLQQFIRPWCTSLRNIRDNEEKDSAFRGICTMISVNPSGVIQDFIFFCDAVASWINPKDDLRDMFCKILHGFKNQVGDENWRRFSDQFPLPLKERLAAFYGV
As to P63A;Y64A, the “effect of a mutation on the interaction” value was “decreasing interaction strength”.

Variants of B2 are the subject of a further experiment. The conditions noted are these: with tnpo1_human TNPO1, Q92973.
In the case of G274A, the “effect of a mutation on the interaction” value is reported as “decreasing interaction”.

For the origin of these results see IntAct's records for PubMed 17435768.
